Reference: patent US20140030286A1 (COMMISSARIAT A L ENERGIE ATOMIQUE ET AUX ENERGIES …, published 2014)

Tests used:
[1] = biological target: the molecule itself; test: gel filtration (S200 10/300GL), self-association
HisIn = biological target: T1, HisIn (Streptococcus pneumoniae); test: electrospray mass spectrometry of the purified complex (measured 26772, calculated 26788.16)
T1 construct: Recombinant, made in E. coli from pACYCDuet-HisIn; also called In peptide; In protein
T1 chain: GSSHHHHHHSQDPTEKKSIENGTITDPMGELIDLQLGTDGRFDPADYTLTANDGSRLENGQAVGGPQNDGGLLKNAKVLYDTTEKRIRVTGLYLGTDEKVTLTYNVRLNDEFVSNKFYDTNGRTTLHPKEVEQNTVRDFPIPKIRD

[2] = biological target: T2, In (derivative of In without His tag, co-expressed with HisJo) (Streptococcus pneumoniae); test: electrospray mass spectrometry of the purified complex (measured 25589, calculated 25606.03; loss of 17 Da)
T2 construct: Expressed from MCSII of pETDuet (pETDuet-In, pETDuet-HisJoIn); also called In peptide
T2 chain: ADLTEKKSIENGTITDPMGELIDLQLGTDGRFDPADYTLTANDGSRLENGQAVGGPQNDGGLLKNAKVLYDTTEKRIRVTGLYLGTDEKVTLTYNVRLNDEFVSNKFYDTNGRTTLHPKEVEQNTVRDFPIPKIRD

[3] = biological target: the molecule itself; test: SDS-PAGE with and without 25 mM DTT, disulphide-linked homodimer (FIG. 12)

B1: FusJoIn (other)
chain: GSSHHHHHHSQDPSDQYPQTGTYPDVQTPYQIIKVDGSEKNGQHKALNPNPYERVIPEGTLSKRIYQVNNLDDNQYGIELTVSGKTVYEQKDGSTPGSVTEKKSIENGTITDPMGELIDLQLGTDGRFDPADYTLTANDGSRLENGQAVGGPQNDGGLLKNAKVLYDTTEKRIRVTGLYLGTDEKVTLTYNVRLNDEFVSNKFYDTNGRTTLHPKEVEQNTVRDFPIPKIRD
notes: Single chain with the isopeptide bond inside the chain; Used as the control for the dimerisation of Jo-B1CK-In; also called FusJoIn complex; Jo-In fused via a linker of 7 amino acids
B1: no binding [1].

B2: HisJo (peptide)
chain: GSSHHHHHHSQDPSDQYPQTGTYPDVQTPYQIIKVDGSEKNGQHKALNPNPYERVIPEGTLSKRIYQVNNLDDNQYGIELTVSGKTVYEQKD
notes: Recombinant, made in E. coli from pETDuet-HisJo; The Jo peptide is RrgA 144-218; the derivative has two more residues at each end; also called Jo peptide; Jo protein
B2: binds (HisIn); binds [2].

B3: Jo-B1CK-In (other)
chain: MGSSHHHHHHSQDPSDQYPQTGTYPDVQTPYQIIKVDGSEKNGQHKALNPNPYERVIPEGTLSKRIYQVNNLDDNQYGIELTVSGKTVYEQKDGIPEISQRTTIVIQKQTFISQHSCVNSTELDELIQQIVAAINAGIIPLGNTSNQISKLTEKKSIENGTITDPMGELIDLQLGTDGRFDPADYTLTANDGSRLENGQAVGGPQNDGGLLKNAKVLYDTTEKRIRVTGLYLGTDEKVTLTYNVRLNDEFVSNKFYDTNGRTTLHPKEVEQNTVRDFPIPKIRD
notes: Circularised within the chain by the Jo-In isopeptide bond; Forms a disulphide-linked dimer through the cysteine of the B1CK loop; also called fusion Jo-B1CK-In; recombinant protein Jo-B1CK-In
B3: binds [3].
